The text below walks through data of US20200079861A1 (AGENUS, published 2020).

Assay [1] addresses T1, V1M cynomolgus GITR (on 1624-5 cells) (cynomolgus, UniProt Q9Y5U5 26-241 (human entry)).
T1 chain: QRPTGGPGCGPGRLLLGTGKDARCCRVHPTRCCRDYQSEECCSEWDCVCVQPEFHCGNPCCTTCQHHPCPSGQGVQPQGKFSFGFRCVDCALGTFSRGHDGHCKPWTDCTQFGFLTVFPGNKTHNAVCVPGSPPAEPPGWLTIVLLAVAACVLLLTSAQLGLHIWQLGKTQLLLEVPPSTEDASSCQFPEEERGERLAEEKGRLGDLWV
In words: flow cytometry on 1624-5 cells. Here is the method:
(§1) After washing, the cells were incubated with a secondary anti-IgG antibody if necessary for detection (APC conjugated; BD Cat no. 109-136-097) diluted in 100 μl FACS buffer (PBS+2% FCS) for 20 min at 4° C. The cells were then washed and acquired using a flow cytometer (BD Biosciences). The mean fluorescence intensity (MFI) value of the tested monoclonal antibody was divided by the MFI value of the polyclonal antibody, generating an MFI ratio (monoclonal antibody/polyclonal antibody) for individual GITR alanine mutants. An average MFI ratio (“AMFI ratio”) was calculated based on the individual MFI ratios for all the mutants. […] An individual MFI ratio that is between 30% and 60% of the AMFI ratio is represented by “+/−” in FIG. 10A. An individual MFI ratio that is below 30% of the AMFI ratio is represented by “−” in FIG. 10A.
(§2) As further evidence for the binding characteristics of the anti-GITR antibodies, the binding of the antibodies to cynomolgus GITR was compared. The immature protein of cynomolgus GITR comprises the amino acid sequence of SEQ ID NO:44.

Assay [2] addresses T2, V1M/Q62P/S63G cynomolgus GITR (on 1624-5 cells) (cynomolgus, UniProt Q9Y5U5 26-241 (human entry)).
T2 construct: V1M lies in the signal peptide; also called mutant cynomolgus GITR V1M/Q62P/S63G
T2 chain: T1 chain with Q37P, S38G
Nature of the assay: flow cytometry on 1624-5 cells, 2 µg/ml antibody. The procedure:
as §1, §2
Background: In flow cytometry, cells or beads pass a laser one at a time.

In assay [3] the target is T3, human GITR (on cells) (human, UniProt Q9Y5U5 26-241).
T3 construct: Swiss-Prot Q9Y5U5-1 is printed; also called huGITR; wild type human GITR
T3 sequence: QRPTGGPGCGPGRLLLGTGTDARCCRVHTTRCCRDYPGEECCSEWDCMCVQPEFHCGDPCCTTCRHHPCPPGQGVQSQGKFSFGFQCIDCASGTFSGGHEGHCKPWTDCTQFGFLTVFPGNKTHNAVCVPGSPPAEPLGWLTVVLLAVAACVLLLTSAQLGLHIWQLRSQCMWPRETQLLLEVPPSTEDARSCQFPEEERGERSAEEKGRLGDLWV
Nature of the assay: flow cytometry on Jurkat cells expressing GITR only. The procedure: (§3) Hut102 cells (human T cell lymphoma, ATCC) were incubated for 72 hours in RPMI media, supplemented with 1 μg/ml phytohaemagglutinin (PHA) and 10% heat-inactivated FBS, at 37° C. and 5% CO₂ to induce GITR and OX40 expression. Cells ectopically expressing GITR or OX40 were generated by transduction of lentiviral vectors (EF1a promoter) into Jurkat cells. Stable clones were generated via single-cell sorting (FACS ARIA Fusion). Expression was verified by flow cytometry. For binding analysis, stable Jurkat cells or activated Hut102 cells were incubated with test antibodies (12-point dose titration, 0.01-10,000 ng/ml) diluted in FACS buffer (PBS, 2 mM EDTA, 0.5% BSA, pH 7.2) for 30 minutes at 4° C. Samples were washed two times in FACS buffer and then incubated with APC-conjugated mouse anti-human kappa detection antibody (Life Technologies, HP6062) for 30 minutes at 4° C. Samples were then washed two times and analyzed using the LSRFortessa flow cytometer (BD Biosciences). FACS plots were analyzed using a combination of FACS DIVA and WEHI Weasel software. Data were plotted with Graphpad Prism software.

For assay [4], the target named is T4, human GITR G63A mutant (on 1624-5 cells) (human, UniProt Q9Y5U5 26-241).
T4 chain: T3 sequence with G38A
In words: flow cytometry on 1624-5 cells, 2 µg/ml antibody, MFI ratio to polyclonal antibody, mutant versus wild type. The procedure:
(§4) An average MFI ratio (“AMFI ratio”) was calculated based on the individual MFI ratios for all the mutants. […] An individual MFI ratio that is between 30% and 60% of the AMFI ratio is represented by “+/−” in FIG. 10A. An individual MFI ratio that is below 30% of the AMFI ratio is represented by “−” in FIG. 10A.
(§5) All the mean fluorescence intensity (MFI) values were calculated as the mean of two measurements.

For assay [5], the target named is T5, GITR antigen (R&D systems, disulfide-linked homodimer; 689-GR) (human, UniProt Q9Y5U5 26-161, R-PE labeled in the suspension array assay; unlabeled and amine-coupled to the chip in SPR).
T5 construct: also called R-PE labeled GITR antigen
T5 sequence (looked up): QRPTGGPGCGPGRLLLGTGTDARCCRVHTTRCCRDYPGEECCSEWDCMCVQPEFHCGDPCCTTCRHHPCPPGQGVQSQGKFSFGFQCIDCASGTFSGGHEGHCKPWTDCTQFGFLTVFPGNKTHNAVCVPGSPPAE
In words: Luminex suspension array, competitor at 20 µg/ml pre-incubated with R-PE labeled GITR antigen; captured antibody 231-32-15. Here is the method: (§6) The bead mixture and the antigen/antibody mixture were mixed 1:1 (20 μl from each) and incubated for one additional hour under shaking conditions (20° C., 650 rpm). Directly before the measurement, 40 μl of assay buffer was added to each well and analysis was performed using a Luminex® 200 system (Millipore) and a readout of 100 beads in 48 μl sample volume. Binding was determined using the MFI values of the non-competed control (100% binding, only assay buffer as competing compound).

Assay [6] concerns the target T6, human OX40 (on cells) (human, UniProt P43489 29-277).
T6 construct: also called huOX40; TNFRSF4
T6 sequence: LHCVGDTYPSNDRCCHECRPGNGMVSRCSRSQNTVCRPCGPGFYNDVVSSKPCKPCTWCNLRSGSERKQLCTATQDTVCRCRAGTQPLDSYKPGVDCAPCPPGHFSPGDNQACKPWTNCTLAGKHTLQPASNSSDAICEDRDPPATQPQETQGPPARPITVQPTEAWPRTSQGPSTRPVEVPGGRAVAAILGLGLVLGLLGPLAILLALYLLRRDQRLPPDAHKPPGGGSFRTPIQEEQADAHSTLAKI
In words: flow cytometry on Jurkat cells expressing OX40 only. The procedure:
as §3

In assay [7] the target is T5, GITR antigen (R&D systems, …). Nature of the assay: Luminex suspension array, m6C8 captured on beads, R-PE labeled GITR antigen; data not shown. The procedure: as §6
For assay [8], the target named is T7, human GITR D60A mutant (on 1624-5 cells) (human, UniProt Q9Y5U5 26-241).
T7 chain: T3 sequence with D35A
In words: flow cytometry on 1624-5 cells, 2 µg/ml antibody, MFI ratio to polyclonal antibody, mutant versus wild type. The procedure: as §4, §5

Assay [9] concerns the target T5, GITR antigen (R&D systems, …). In words: SPR (BIAcore), GITR antigen immobilized on the chip, antibody at 300 nM. The procedure:
Flow cell 2 contained GITR antigen in low density (667 RU), medium density was assessed in flow cell 3 (1595 RU) and in flow cell 4, high density was achieved (4371 RU). In flow cell 1, ovalbumin (1289 RU, Pierce ThermoFisher 77120) was immobilized for reference. Immobilization was performed according to a standard protocol from the manufacturer (GE Healthcare) for amine coupling (activation of surface with 0.4 M EDC and 0.1 M NHS, GE Healthcare Amine coupling kit, BR-1000-50). […] Afterwards anti-GITR antibodies were run through the different surfaces at a concentration of 300 nM (45 μg/ml) for 240 seconds at 5 μl/min. […] A dissociation time of 60 seconds was included before adding the competing antibody (300 nM, 5 μl/min).
A general note: SPR reads the build-up and loss of mass on a sensor chip optically.

Substitutions are numbered along the chain they refer to. Numbers in names are those of the source.

B1: pab1876 (antibody, human IgG1, V domains shown)
VH: QVQLVQSGAEVKKPGASVKVSCKGSGYTFTDYAMYWVRQAPGQGLEWIGVIRTYSGDVTYNQKFKDRATMTVDKSISTAYMELSRLRSDDTAVYYCAKSGTVRGFAYWGQGTLVTVSS
VL: DIVMTQSPDSLAVSLGERATINCKSSQSLLNSGNQKNYLTWYQQKPGQPPKLLIYWASTRESGVPDRFSGSGSGTDFTLTISSLQAEDVAVYHCQNDYSYPYTFGQGTKLEIKR
notes: also called bivalent monospecific antibody pab1876; pab1876w (same chains without light chain T109S)
Consider B1, for which the binding result in assay [1] was “no binding (tested: 2 µg/ml)”; in assay [2], “binds”; in assay [3] it was “binds”; in assay [5] it was “binds”. Further, in assay [4], the “percentage of reduction in binding relative to wild type GITR” value was 59%.

B2: pab1875 (antibody, V domains shown)
VH: B1 VH
VL: DIVMTQSPPTLSLSPGERVTLSCKSSQSLLNSGNQKNYLTWYQQKPGQAPRLLIYWASTRESGIPARFSGSGSGTDFTLTISSLQPEDFAVYHCQNDYSYPYTFGQGTKLEIK
Turning to B2, in assay [5], the binding result is recorded as “binds”.

B3: pab2049 (antibody, human IgG1, V domains shown)
VH: EVQLVESGGGLVQPGGSLKLSCAASGFTFSGSAMHWVRQASGKGLEWVGRIRSKANSYATAYAASVKGRFTISRDDSKNTAYLQMNSLKTEDTAVYYCTSGIYDSSGYDYWGQGTLVTVSS
VL: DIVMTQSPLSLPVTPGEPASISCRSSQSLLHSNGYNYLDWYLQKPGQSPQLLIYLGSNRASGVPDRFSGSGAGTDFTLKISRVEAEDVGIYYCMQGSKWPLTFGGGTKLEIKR
notes: also called bivalent monospecific antibody pab2049; pab2049w (same chains without light chain T109S)
Consider B3, for which the binding result in assay [6] was “binds”.

B4: m6C8 (antibody, V domains shown)
VH: QVTLKESGPGILKPSQTLSLTCSFSGFSLSTSGMGVGWIRQPSGKGLEWLAHIWWDDDKYYNPSLKSQLTISKDTSRNQVFLKITSVDTADAATYYCARTRRYFPFAYWGQGTLVTVSS
VL: DIVMTQSQKFMSTSVGDRVSVTCKASQNVGTNVAWYQQKPGQSPKALIYSASYRYSGVPDRFTGSGSGTDFTLTINNVHSEDLAEYFCQQYNTDPLTFGAGTKLEIK
notes: Generated from the variable regions of antibody 6C8 of WO 2006/105021; also called murine antibody 6C8
Take B4: in [7], the binding result is recorded as “binds”. In assay [8], the “percentage of reduction in binding relative to wild type GITR” value worked out at 10%. For the same molecule, the “percentage of increase in binding relative to wild type GITR” value in assay [4] was 62%.

B5: chimeric parental 231-32-15 antibody (antibody, V domains shown)
VH: QVQLLQSGTELVRPGVSVKISCKGSGYTFTDYAMYWVKQSHAKSLEWIGVIRTYSGDVTYNQKFKDKATMTVDKSSSIAYMELARLSSEDSAIYYCAKSGTVRGFAYWGQGTLVTVSS
VL: DIVMTQSPSSLTVTAGEKVIMSCKSSQSLLNSGNQKNYLTWYQQKPGQPPKLLIYWASTRESGVPDRFTGSGSGTDFTLTISSVQAEDLAVYHCQNDYSYPYTFGGGTKLEIK
notes: Chimeric antibody
Turning to B5, the binding result in assay [1] is listed as “no binding (tested: 2 µg/ml)”; in [2] it was “binds”; in assay [9], “binds”. In addition, the “percentage of reduction in binding relative to wild type GITR” value in [8] was 82%; in assay [4] it was 37%.
